Source: doi:10.1101/2021.03.14.433363
Like-named read-outs stand apart in the source and are kept apart here.

How the values were obtained:
RIG-I CTD [1] = biological target: T1, RIG-I CTD (human, UniProt O95786 802-925); experiment: limited trypsin proteolysis protection
T1 sequence: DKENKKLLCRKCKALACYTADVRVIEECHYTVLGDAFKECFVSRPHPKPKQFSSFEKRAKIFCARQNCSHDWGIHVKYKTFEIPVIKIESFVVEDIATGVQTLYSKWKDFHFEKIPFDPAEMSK

DRH-3 CTD [2] = biological target: T2, DRH-3 CTD (Caenorhabditis elegans, UniProt Q93413 940-1108); experiment: crystal structure
T2 sequence: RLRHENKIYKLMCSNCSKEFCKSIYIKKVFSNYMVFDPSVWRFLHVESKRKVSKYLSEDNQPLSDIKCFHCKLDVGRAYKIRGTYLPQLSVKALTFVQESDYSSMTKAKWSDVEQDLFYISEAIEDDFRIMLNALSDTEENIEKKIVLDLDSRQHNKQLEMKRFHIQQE

DRH-3 full length = biological target: T3, DRH-3 full length (Caenorhabditis elegans, UniProt Q93413 1-1119); experiment: HDX-MS
T3 sequence: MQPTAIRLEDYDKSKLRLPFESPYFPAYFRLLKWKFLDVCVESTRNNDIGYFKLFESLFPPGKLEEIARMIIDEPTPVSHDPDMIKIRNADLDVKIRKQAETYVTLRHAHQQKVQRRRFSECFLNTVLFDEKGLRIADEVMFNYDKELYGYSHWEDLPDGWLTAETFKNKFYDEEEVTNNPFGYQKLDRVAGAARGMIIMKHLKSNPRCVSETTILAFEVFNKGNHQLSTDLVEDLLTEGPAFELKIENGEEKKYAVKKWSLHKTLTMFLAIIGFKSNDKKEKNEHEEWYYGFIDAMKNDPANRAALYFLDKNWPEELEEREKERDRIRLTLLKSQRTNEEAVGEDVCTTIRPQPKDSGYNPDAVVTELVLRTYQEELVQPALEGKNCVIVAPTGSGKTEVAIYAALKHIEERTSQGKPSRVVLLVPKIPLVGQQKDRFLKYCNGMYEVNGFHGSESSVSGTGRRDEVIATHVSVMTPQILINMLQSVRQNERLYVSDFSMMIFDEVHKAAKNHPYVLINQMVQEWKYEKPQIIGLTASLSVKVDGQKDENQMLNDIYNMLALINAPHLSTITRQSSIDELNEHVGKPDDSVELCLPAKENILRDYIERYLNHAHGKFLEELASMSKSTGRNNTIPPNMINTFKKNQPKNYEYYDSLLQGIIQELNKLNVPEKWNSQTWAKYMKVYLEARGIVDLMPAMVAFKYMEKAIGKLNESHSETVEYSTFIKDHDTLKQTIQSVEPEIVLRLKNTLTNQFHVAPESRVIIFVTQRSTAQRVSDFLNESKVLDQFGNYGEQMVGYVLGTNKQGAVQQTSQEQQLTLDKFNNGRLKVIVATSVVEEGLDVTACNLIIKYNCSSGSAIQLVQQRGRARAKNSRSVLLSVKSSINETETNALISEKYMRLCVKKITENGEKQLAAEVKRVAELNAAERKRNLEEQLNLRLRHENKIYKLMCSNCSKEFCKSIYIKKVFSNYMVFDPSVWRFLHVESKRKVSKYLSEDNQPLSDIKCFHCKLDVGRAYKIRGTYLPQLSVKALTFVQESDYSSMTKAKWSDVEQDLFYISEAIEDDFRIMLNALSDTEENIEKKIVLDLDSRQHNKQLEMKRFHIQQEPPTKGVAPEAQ

RIG-I CTD [3] = biological target: T1, RIG-I CTD; experiment: limited trypsin proteolysis protection; remark: listed apart in the source
DRH-3 CTD [4] = biological target: T2, DRH-3 CTD; experiment: fluorescence polarization

B1: 5'-ppp 12-mer dsRNA (dsRNA)
RNA 1: GGCGCGCGCGCC
RNA 2: GGCGCGCGCGCC
modifications: 5'-triphosphate
Question: Does B1 bind (RIG-I CTD [1])?
Answer: Result: binds

Question: Does B1 bind (DRH-3 CTD [2])?
Answer: Result: binds

Question: Does GGACGUACGUUUCGACGUACGUCC (structured_RNA, 5'-triphosphate) [3p10L (SLR10)] bind (DRH-3 full length)?
Answer: Result: binds

Question: Does GGCCGCCC (ssRNA, 5'-triphosphate) [5'-ppp 8-mer ssRNA] bind (DRH-3 CTD [2])?
Answer: Result: binds

B2: 5'-ppp 12-mer dsRNA with 3'-overhang (dsRNA)
RNA 1: GGCGCGCGCGCCC
RNA 2: GGCGCGCGCGCCC
modifications: 5'-triphosphate
Question: Does B2 bind (RIG-I CTD [3])?
Answer: Result: binds

Question: UUUAUAUAUUAGGACCGCUCGGCGGUCCUAAUAUAUAAA (structured_RNA, 5'-OH) [FAM-labelled 5'-OH 18-mer hairpin RNA] was tested. Which Kd (DRH-3 CTD [4]) did it give?
Answer: The Kd was 325 ± 70.1 nM.
